Substrate in the series: O=c1ccn([C@@H]2O[C@H](COP(=O)(O)O)[C@@H](O)[C@H]2O)c(=O)[nH]1
Description: purified protein. The settings on record: without GTP, 1 mM ATP, 5 mM MgCl2, 100 mM KCl, 50 mM Tris-HCl pH 7.5, 25°C. It is filed as biochemical, Thermus thermophilus.

B1: ttUMPK (UMP kinase of Thermus thermophilus HB8) (Thermus thermophilus HB8) (protein)
chain: MKYKRVLLKLSGEFLTRNGFGIEPEATQALAREIKAAYDTGVQLAIVIGAGNLWRGARQGVGMDRATADYIGMLATIMNALALQDALESLGVPTRVQTALTITQVAEPYIRRRALRHLEKERIVIFGGGTGNPFFSTDTAAALRALEVGAEVVLMAKNKVDGVYSDDPRKNPEAVRFDELTYLEVLNRGLQVMDTTAITLCMEAGLPIVVFDIFKPGALVGIIQGEKVGTLIH
notes: full-length gene in pET-11a (NdeI/BamHI), no tag mentioned; expressed in E. coli BL21(DE3), heat-treated; homohexamer by size exclusion
Regarding B1, the Km amounted to 46 µM and the kcat turned out to be 13 s⁻¹.

The Km is the concentration of substrate that gives half-maximal velocity. For orientation: kcat means the maximal rate divided by the concentration of active sites.

The values above are taken from PMC12404492, “The crystal structure of Thermus thermophilus UMP kinase complexed with a phosphoryl group acceptor and donor” (PLOS One, 2025).
